Experimental data from publication PMC11203576 (International Journal of Molecular Sciences, 2024).

Biological target: T1, SARS-CoV-2 spike protein RBD, original (wild-type), sfGFP fusion (SARS-CoV-2, UniProt P0DTC2)
T1 construct: also called original RBD; original SARS-CoV-2 RBD
Experiment: SPR; Biacore T200; […] (0.01 M HEPES, 0.15 M NaCl, 3 mM EDTA, 0.05% surfactant P20, […]
Settings: both partners purified

B1: Recombinant Microcystis viridis NIES-102 lectin (rMVL) (natural protein)
chain: MASYKVNIPAGPLWSNAEAQQVGPKIAAAHQGNFTGQWTTVVESAMSVVEVELQVENTGIHEFKTDVLAGPLWSNDEAQKLGPQIAASYGAEFTGQWRTIVEGVMSVIQIKYTF
notes: also called Microcystis viridis lectin
Kd: 2.08 µM
